Source: the supplement of paper PMC10567573

B1: VTI1B (parent)
chain: NKLLLSIIILLELAILGGLVYYKF
B2: TLE6 (parent)
chain: FWHDTLTEQLWRIFAGVHDEKAKP

Variants of: B1
Experiment: protein stability index of a GFP-peptide fusion (GPS, HEK-293T) (PSI 1-6); higher = more stable
Settings: c terminus: a fixed tail appended
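Further: lentivirally expressed fusions sorted by FACS into six bins by GFP to DsRed ratio, PSI derived from sequencing read proportions per bin multiplied by bin number.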

Variant | protein stability index
NKLLLSIIILLELAILVGLVYYKF | 2.85
NKLLLSIIILLELAILWGLVYYKF | 3.38
NKLLLSIIILLELAILYGLVYYKF | 2.5
NKLLLSIIILLELAILGALVYYKF | 2.61
NKLLLSIIILLELAILGCLVYYKF | 3.99
NKLLLSIIILLELAILGDLVYYKF | 2.01
NKLLLSIIILLELAILGELVYYKF | 2.07
NKLLLSIIILLELAILGFLVYYKF | 1.55
NKLLLSIIILLELAILGHLVYYKF | 2.46
NKLLLSIIILLELAILGILVYYKF | 3.09
NKLLLSIIILLELAILGLLVYYKF | 2.61
NKLLLSIIILLELAILGNLVYYKF | 2.96
NKLLLSIIILLELAILGPLVYYKF | 2.88
NKLLLSIIILLELAILGQLVYYKF | 2.61
NKLLLSIIILLELAILGRLVYYKF | 2.65
NKLLLSIIILLELAILGSLVYYKF | 3.16
NKLLLSIIILLELAILGTLVYYKF | 2.61
NKLLLSIIILLELAILGVLVYYKF | 2.56
NKLLLSIIILLELAILGWLVYYKF | 2.52
NKLLLSIIILLELAILGYLVYYKF | 1.86
NKLLLSIIILLELAILGGAVYYKF | 3.32
NKLLLSIIILLELAILGGCVYYKF | 2.05
NKLLLSIIILLELAILGGDVYYKF | 3.31
NKLLLSIIILLELAILGGEVYYKF | 4.42
NKLLLSIIILLELAILGGFVYYKF | 2.77
NKLLLSIIILLELAILGGGVYYKF | 3.14

Variant | protein stability index
NKLLLSIIILLELAILGGHVYYKF | 1.56
NKLLLSIIILLELAILGGIVYYKF | 3.35
NKLLLSIIILLELAILGGKVYYKF | 2.67
NKLLLSIIILLELAILGGMVYYKF | 2.76
NKLLLSIIILLELAILGGNVYYKF | 3.02
NKLLLSIIILLELAILGGPVYYKF | 3.45
NKLLLSIIILLELAILGGQVYYKF | 3.21
NKLLLSIIILLELAILGGRVYYKF | 2.95
NKLLLSIIILLELAILGGSVYYKF | 3.48
NKLLLSIIILLELAILGGTVYYKF | 1.82
NKLLLSIIILLELAILGGWVYYKF | 2.91
NKLLLSIIILLELAILGGYVYYKF | 2.48
NKLLLSIIILLELAILGGLAYYKF | 2.12
NKLLLSIIILLELAILGGLCYYKF | 1.34
NKLLLSIIILLELAILGGLDYYKF | 3.38
NKLLLSIIILLELAILGGLFYYKF | 2.98
NKLLLSIIILLELAILGGLIYYKF | 2.23
NKLLLSIIILLELAILGGLKYYKF | 3.48
NKLLLSIIILLELAILGGLLYYKF | 3.59
NKLLLSIIILLELAILGGLMYYKF | 3.01
NKLLLSIIILLELAILGGLNYYKF | 2.81
NKLLLSIIILLELAILGGLPYYKF | 2.94
NKLLLSIIILLELAILGGLQYYKF | 3.31
NKLLLSIIILLELAILGGLRYYKF | 3.41
NKLLLSIIILLELAILGGLSYYKF | 2.32
NKLLLSIIILLELAILGGLTYYKF | 3.34

Variant | protein stability index
NKLLLSIIILLELAILGGLWYYKF | 2.84
NKLLLSIIILLELAILGGLYYYKF | 2.87
NKLLLSIIILLELAILGGLVAYKF | 1.46
NKLLLSIIILLELAILGGLVCYKF | 3.01
NKLLLSIIILLELAILGGLVDYKF | 3.33
NKLLLSIIILLELAILGGLVEYKF | 2.28
NKLLLSIIILLELAILGGLVFYKF | 3.24
NKLLLSIIILLELAILGGLVGYKF | 3.61
NKLLLSIIILLELAILGGLVHYKF | 2.32
NKLLLSIIILLELAILGGLVIYKF | 2.42
NKLLLSIIILLELAILGGLVKYKF | 2.65
NKLLLSIIILLELAILGGLVLYKF | 3.39
NKLLLSIIILLELAILGGLVMYKF | 2.58
NKLLLSIIILLELAILGGLVNYKF | 2.3
NKLLLSIIILLELAILGGLVPYKF | 2.42
NKLLLSIIILLELAILGGLVQYKF | 3.37
NKLLLSIIILLELAILGGLVRYKF | 2.32
NKLLLSIIILLELAILGGLVSYKF | 1.66
NKLLLSIIILLELAILGGLVTYKF | 2.79
NKLLLSIIILLELAILGGLVVYKF | 2.17
NKLLLSIIILLELAILGGLVWYKF | 2.62
NKLLLSIIILLELAILGGLVYAKF | 3.55
NKLLLSIIILLELAILGGLVYCKF | 2.53
NKLLLSIIILLELAILGGLVYDKF | 2.55
NKLLLSIIILLELAILGGLVYEKF | 1.54
NKLLLSIIILLELAILGGLVYFKF | 2.59

Variant | protein stability index
NKLLLSIIILLELAILGGLVYGKF | 3.7
NKLLLSIIILLELAILGGLVYHKF | 3.4
NKLLLSIIILLELAILGGLVYIKF | 3.12
NKLLLSIIILLELAILGGLVYKKF | 1.71
NKLLLSIIILLELAILGGLVYLKF | 3.17
NKLLLSIIILLELAILGGLVYMKF | 3.54
NKLLLSIIILLELAILGGLVYNKF | 2.47
NKLLLSIIILLELAILGGLVYPKF | 3.8
NKLLLSIIILLELAILGGLVYQKF | 3.06
NKLLLSIIILLELAILGGLVYRKF | 2.92
NKLLLSIIILLELAILGGLVYSKF | 1.56
NKLLLSIIILLELAILGGLVYTKF | 2.95
NKLLLSIIILLELAILGGLVYVKF | 3.2
NKLLLSIIILLELAILGGLVYWKF | 3.83
NKLLLSIIILLELAILGGLVYYAF | 2.52
NKLLLSIIILLELAILGGLVYYCF | 2.27
NKLLLSIIILLELAILGGLVYYDF | 2.65
NKLLLSIIILLELAILGGLVYYEF | 2.78
NKLLLSIIILLELAILGGLVYYFF | 2.1
NKLLLSIIILLELAILGGLVYYGF | 2.08
NKLLLSIIILLELAILGGLVYYHF | 1.85
NKLLLSIIILLELAILGGLVYYIF | 2.95
NKLLLSIIILLELAILGGLVYYMF | 4.1
NKLLLSIIILLELAILGGLVYYNF | 2.72
NKLLLSIIILLELAILGGLVYYPF | 3.73
NKLLLSIIILLELAILGGLVYYQF | 3.58

Variant | protein stability index
NKLLLSIIILLELAILGGLVYYRF | 2.49
NKLLLSIIILLELAILGGLVYYSF | 2.05
NKLLLSIIILLELAILGGLVYYTF | 2.41
NKLLLSIIILLELAILGGLVYYVF | 3.21
NKLLLSIIILLELAILGGLVYYWF | 2.23
NKLLLSIIILLELAILGGLVYYYF | 2.52
NKLLLSIIILLELAILGGLVYYKA | 2.47
NKLLLSIIILLELAILGGLVYYKC | 2.01
NKLLLSIIILLELAILGGLVYYKD | 3.03
NKLLLSIIILLELAILGGLVYYKE | 3.85
NKLLLSIIILLELAILGGLVYYKG | 2.52
NKLLLSIIILLELAILGGLVYYKH | 2.07
NKLLLSIIILLELAILGGLVYYKK | 1.52
NKLLLSIIILLELAILGGLVYYKL | 2.53
NKLLLSIIILLELAILGGLVYYKN | 1.86
NKLLLSIIILLELAILGGLVYYKP | 2.79
NKLLLSIIILLELAILGGLVYYKQ | 2.77
NKLLLSIIILLELAILGGLVYYKR | 3.27
NKLLLSIIILLELAILGGLVYYKS | 2.46
NKLLLSIIILLELAILGGLVYYKT | 3.12
NKLLLSIIILLELAILGGLVYYKV | 2.5
NKLLLSIIILLELAILGGLVYYKW | 1.83
NKLLLSIIILLELAILGGLVYYKY | 1.63

Variants of: B2
Experiment: as above
Settings: c terminus: a fixed tail appended

Variant | protein stability index
FWHDTLTETLWRIFAGVHDEKAKP | 2.38
FWHDWLTEQLWRIFAGVHDEKAKP | 1.46
FWHDTLTNQLWRIFAGVHDEKAKP | 1.79
FWHDTLTEQLWRIFAMVHDEKAKP | 2.14
FWHDTLTEQLWRIFYGVHDEKAKP | 1.62
FWHDTLTEQLWRIFAGVHDEKASP | 2.17
FWHDTLTEQLWRIFAGVHDEKVKP | 1.8
FYHDTLTEQLWRIFAGVHDEKAKP | 1.85
FWHDTLTPQLWRIFAGVHDEKAKP | 1.76
FWHDTLLEQLWRIFAGVHDEKAKP | 2.3
FWHDKLTEQLWRIFAGVHDEKAKP | 2.78
FWHDTLTEQLWRIFAGVHDEKAKK | 1.78
FWHDTLTEQLWRIFAGVHDEFAKP | 2.72
FWHDTLTEQLWRIFAGVHDEKAKA | 1.7
FWHDTLTEQLGRIFAGVHDEKAKP | 2.46
FWSDTLTEQLWRIFAGVHDEKAKP | 1.72
FWHDTRTEQLWRIFAGVHDEKAKP | 2.53
FWHDMLTEQLWRIFAGVHDEKAKP | 1.96
FWHDTLTEQLWDIFAGVHDEKAKP | 1.94
FWHDTLTEQLWRIFAGMHDEKAKP | 1.93
FWHDTLTEQLWRIFAGVHDIKAKP | 1.99

Variant | protein stability index
PWHDTLTEQLWRIFAGVHDEKAKP | 2.18
FWHDTLTEQLWRIFARVHDEKAKP | 1.6
FWHDTLTEQLWRIFAGVHDEHAKP | 1.69
FWHDTLTEQLWRIFAGKHDEKAKP | 1.79
FWHDTLTEQLWRIFAGCHDEKAKP | 1.47
FWHDTLTEQLWRIFAGVRDEKAKP | 1.84
FWHDTLCEQLWRIFAGVHDEKAKP | 3.13
FWHHTLTEQLWRIFAGVHDEKAKP | 1.8
FWHDTLTEQLWYIFAGVHDEKAKP | 1.69
FWHDTLTEQLWRIFAGVHPEKAKP | 1.8
FWHDTLTEQLWRIWAGVHDEKAKP | 1.89
FWHDTLTEQLWRIFAGVHDEKDKP | 1.9
FWHDTLTEQLWQIFAGVHDEKAKP | 1.94
FWHDTLTEQLWLIFAGVHDEKAKP | 1.91
FWHDTLTEQLFRIFAGVHDEKAKP | 1.59
FWHDTLTEQLWRIFAGVHDRKAKP | 1.24
FWHDTLTEQLWSIFAGVHDEKAKP | 2.06
FWHDTLTEQLWRIFAGDHDEKAKP | 1.92
FPHDTLTEQLWRIFAGVHDEKAKP | 2.16
FWHDTLEEQLWRIFAGVHDEKAKP | 1.42
FWHATLTEQLWRIFAGVHDEKAKP | 1.49

Variant | protein stability index
FWHDTLTEQLWRIFAGVHDEKAKM | 1.64
FWHDTLTEQLWRIFAGVHKEKAKP | 1.7
FWHDTLTEQLWRIFAHVHDEKAKP | 2.26
FWHDTLTEQLWRIFAAVHDEKAKP | 1.88
FWHDTLTEQLWRIFAGYHDEKAKP | 1.54
FWHDRLTEQLWRIFAGVHDEKAKP | 1.53
FGHDTLTEQLWRIFAGVHDEKAKP | 1.69
FWHDTLTEQLWRIFAGVHDEKAYP | 1.92
FWHDTLIEQLWRIFAGVHDEKAKP | 2.04
FWHDTNTEQLWRIFAGVHDEKAKP | 2.31
FWHDTLTEQLWRIFANVHDEKAKP | 2.07
FWHDTLTEQLWRIFAFVHDEKAKP | 1.72
FWHDTLTEQLWRIFAGVHDEKAKF | 2.44
FWHDTLTEQLWRIFAQVHDEKAKP | 1.89
FWHDTLTEQLWRIFAGVHDHKAKP | 1.46
FWHDTMTEQLWRIFAGVHDEKAKP | 1.85
FWHDTLMEQLWRIFAGVHDEKAKP | 2.19
FWHDTLTEQLWRIFAGVHDNKAKP | 2.19
FWCDTLTEQLWRIFAGVHDEKAKP | 1.95
